From article PMC3147155

Biological target: I95E mutant of the PAS-A domain of the Bacillus subtilis protein KinA (Bacillus subtilis)
Test: AUC

Work on “I95E mutant of the PAS-A domain of the Bacillus subtilis protein KinA (domain or fragment)” yielded a log(Ka) of 3.96, a log(k−) (log of koff) of -3.7 and a stoichiometry N of 2.
